Measurements as given in article doi:10.1101/2021.11.30.470528.

Molecular target: GST affinity tag
Assay: SEC

Chain of GST affinity tag (P08515 2-218): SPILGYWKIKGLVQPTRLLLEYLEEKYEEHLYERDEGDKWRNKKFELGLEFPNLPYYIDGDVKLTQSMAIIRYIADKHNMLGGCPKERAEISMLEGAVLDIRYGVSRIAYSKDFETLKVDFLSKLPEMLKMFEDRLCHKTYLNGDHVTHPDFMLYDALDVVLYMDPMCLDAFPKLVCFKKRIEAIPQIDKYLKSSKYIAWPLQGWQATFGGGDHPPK

For GST affinity tag, the stoichiometry N was 2.
